Target: HIV-1 IIIB p24 recombinant protein (HIV-1 IIIB)
Assay: SPR, mAb immobilized on a Protein A chip, 0-200 nM p24, room temperature

B1: N60P55 (antibody, V domains shown)
VH: QVQLRESGPGLVKPSATLSLTCIVSGGSMSGYYWSWIRQPPGKGLEWIGHIDNNERTISSPSLNSRVTVSPDTSRNRFTLTLSSVTAADTATYYCARHVVYGGLDIWGQGTLVTVSS
VL: EIVLTQSPGTLSLSPGERASLSCRASDIVSINYFAWYQQKPGQAPRLLISGASVRATGIPDRFSGSGSGTDFTLTINRLEPEDVAVYYCQQHGSSPTFGQGTKVEIK
Kd: 0.0917 nM | koff: 6.55e-05 s⁻¹ | kon: 715000 M⁻¹ s⁻¹

Source: patent US20200182883A1
